Reference: patent publication US20090099029A1, “Methods and substrates for conducting assays” (Invitrogen Corporation, priority 2005, published 2009)

B1: TTK (protein)
chain: MESEDLSGRELTIDSIMNKVRDIKNKFKNEDLTDELSLNKISADTTDNSGTVNQIMMMANNPEDWLSLLLKLEKNSVPLSDALLNKLIGRYSQAIEALPPDKYGQNESFARIQVRFAELKAIQEPDDARDYFQMARANCKKFAFVHISFAQFELSQGNVKKSKQLLQKAVERGAVPLEMLEIALRNLNLQKKQLLSEEEKKNLSASTVLTAQESFSGSLGHLQNRNNSCDSRGQTTKARFLYGENMPPQDAEIGYRNSLRQTNKTKQSCPFGRVPVNLLNSPDCDVKTDDSVVPCFMKRQTSRSECRDLVVPGSKPSGNDSCELRNLKSVQNSHFKEPLVSDEKSSELIITDSITLKNKTESSLLAKLEETKEYQEPEVPESNQKQWQSKRKSECINQNPAASSNHWQIPELARKVNTEQKHTTFEQPVFSVSKQSPPISTSKWFDPKSICKTPSSNTLDDYMSCFRTPVVKNDFPPACQLSTPYGQPACFQQQQHQILATPLQNLQVLASSSANECISVKGRIYSILKQIGSGGSSKVFQVLNEKKQIYAIKYVNLEEADNQTLDSYRNEIAYLNKLQQHSDKIIRLYDYEITDQYIYMVMECGNIDLNSWLKKKKSIDPWERKSYWKNMLEAVHTIHQHGIVHSDLKPANFLIVDGMLKLIDFGIANQMQPDTTSVVKDSQVGTVNYMPPEAIKDMSSSRENGKSKSKISPKSDVWSLGCILYYMTYGKTPFQQIINQISKLHAIIDPNHEIEFPDIPEKDLQDVLKCCLKRDPKQRISIPELLAHPYVQIQTHPVNQMAKGTTEEMKYVLGQLVGLNSPNSILKAAKTLYEHYSGGESHNSSSSKTFEKKRGKK
modifications: left off: a dimerising Fc or GST
B2: FLT1(VEGFR1) (protein)
chain: RKMKRSSSEIKTDYLSIIMDPDEVPLDEQCERLPYDASKWEFARERLKLGKSLGRGAFGKVVQASAFGIKKSPTCRTVAVKMLKEGATASEYKALMTELKILTHIGHHLNVVNLLGACTKQGGPLMVIVEYCKYGNLSNYLKSKRDLFFLNKDAALHMEPKKEKMEPGLEQGKKPRLDSVTSSESFASSGFQEDKSLSDVEEEEDSDGFYKEPITMEDLISYSFQVARGMEFLSSRKCIHRDLAARNILLSENNVVKICDFGLARDIYKNPDYVRKGDTRLPLKWMAPESIFDKIYSTKSDVWSYGVLLWEIFSLGGSPYPGVQMDEDFCSRLREGMRMRAPEYSTPEIYQIMLDCWHRDPKERPRFAELVEKLGDLLQANVQQDGKDYIPINAILTGNSGFTYSTPAFSEDFFKESISAPKFNSGSSDDVRYVNAFKFMSLERIKTFEELLPNATSMFDDYQGDSSTLLASPMLKRFTWTDSKPKASLKIDLRVTSKSKESGLSDVSRPSFCHSSCGHVSEGKRRFTYDHAELERKIACCSPPPDYNSVVLYSTPPI
modifications: left off: a dimerising Fc or GST
B3: FGFR3 (protein)
chain: RLRSPPKKGLGSPTVHKISRFPLKRQVSLESNASMSSNTPLVRIARLSSGEGPTLANVSELELPADPKWELSRARLTLGKPLGEGCFGQVVMAEAIGIDKDRAAKPVTVAVKMLKDDATDKDLSDLVSEMEMMKMIGKHKNIINLLGACTQGGPLYVLVEYAAKGNLREFLRARRPPGLDYSFDTCKPPEEQLTFKDLVSCAYQVARGMEYLASQKCIHRDLAARNVLVTEDNVMKIADFGLARDVHNLDYYKKTTNGRLPVKWMAPEALFDRVYTHQSDVWSFGVLLWEIFTLGGSPYPGIPVEELFKLLKEGHRMDKPANCTHDLYMIMRECWHAAPSQRPTFKQLVEDLDRVLTVTSTDEYLDLSAPFEQYSPGGQDTPSSSSSGDDSVFAHDLLPPAPPSSGGSRT
modifications: left off: small tags and cut ends
B4: TAOK3(JIK) (protein)
chain: MRKGVLKDPEIADLFYKDDPEELFIGLHEIGHGSFGAVYFATNAHTSEVVAIKKMSYSGKQTHEKWQDILKEVKFLRQLKHPNTIEYKGCYLKEHTAWLVMEYCLGSASDLLEVHKKPLQEVEIAAITHGALHGLAYLHSHALIHRDIKAGNILLTEPGQVKLADFGSASMASPANSFVGTPYWMAPEVILAMDEGQYDGKVDIWSLGITCIELAERKPPLFNMNAMSALYHIAQNDSPTLQSNEWTDSFRRFVDYCLQKIPQERPTSAELLRHDFVRRDRPLRVLIDLIQRTKDAVRELDNLQYRKMKKILFQETRNGPLNESQEDEEDSEHGTSLNREMDSLGSNHSIPSMSVSTGSQSSSVNSMQEVMDESSSELVMMHDDESTINSSSSVVHKKDHVFIRDEAGHGDPRPEPRPTQSVQSQALHYRNRERFATIKSASLVTRQIHEHEQENELREQMSGYKRMRRQHQKQLIALENKLKAEMDEHRLKLQKEVETHANNSSIELEKLAKKQVAIIEKEAKVAAADEKKFQQQILAQQKKDLTTFLESQKKQYKICKEKIKEEMNEDHSTPKKEKQERISKHKENLQHTQAEEEAHLLTQQRLYYDKNCRFFKRKIMIKRHEVEQQNIREELNKKRTQKEMEHAMLIRHDESTRELEYRQLHTLQKLRMDLIRLQHQTELENQLEYNKRRERELHRKHVMELRQQPKNLKAMEMQIKKQFQDTCKVQTKQYKALKNHQLEVTPKNEHKTILKTLKDEQTRKLAILAEQYEQSINEMMASQALRLDEAQEAECQALRLQLQQEMELLNAYQSKIKMQTEAQHERELQKLEQRVSLRRAHLEQKIEEELAALQKERSERIKNLLERQEREIETFDMESLRMGFGNLVTLDFPKEDYR
modifications: left off: a dimerising Fc or GST
B5: FGFR4 (protein)
chain: RGQALHGRHPRPPATVQKLSRFPLARQFSLESGSSGKSSSSLVRGVRLSSSGPALLAGLVSLDLPLDPLWEFPRDRLVLGKPLGEGCFGQVVRAEAFGMDPARPDQASTVAVKMLKDNASDKDLADLVSEMEVMKLIGRHKNIINLLGVCTQEGPLYVIVECAAKGNLREFLRARRPPGPDLSPDGPRSSEGPLSFPVLVSCAYQVARGMQYLESRKCIHRDLAARNVLVTEDNVMKIADFGLARGVHHIDYYKKTSNGRLPVKWMAPEALFDRVYTHQSDVWSFGILLWEIFTLGGSPYPGIPVEELFSLLREGHRMDRPPHCPPELYGLMRECWHAAPSQRPTFKQLVEALDKVLLAVSEEYLDLRLTFGPYSPSGGDASSTCSSSDSVFSHDPLPLGSSSFPFGSGVQT
modifications: left off: small tags and cut ends
B6: TAOK2(TAO1) (protein)
chain: MPAGGRAGSLKDPDVAELFFKDDPEKLFSDLREIGHGSFGAVYFARDVRNSEVVAIKKMSYSGKQSNEKWQDIIKEVRFLQKLRHPNTIQYRGCYLREHTAWLVMEYCLGSASDLLEVHKKPLQEVEIAAVTHGALQGLAYLHSHNMIHRDVKAGNILLSEPGLVKLGDFGSASIMAPANSFVGTPYWMAPEVILAMDEGQYDGKVDVWSLGITCIELAERKPPLFNMNAMSALYHIAQNESPVLQSGHWSEYFRNFVDSCLQKIPQDRPTSEVLLKHRFVLRERPPTVIMDLIQRTKDAVRELDNLQYRKMKK
modifications: left off: a dimerising Fc or GST
B7: FLT3 (protein)
chain: HKYKKQFRYESQLQMVQVTGSSDNEYFYVDFREYEYDLKWEFPRENLEFGKVLGSGAFGKVMNATAYGISKTGVSIQVAVKMLKEKADSSEREALMSELKMMTQLGSHENIVNLLGACTLSGPIYLIFEYCCYGDLLNYLRSKREKFHRTWTEIFKEHNFSFYPTFQSHPNSSMPGSREVQIHPDSDQISGLHGNSFHSEDEIEYENQKRLEEEEDLNVLTFEDLLCFAYQVAKGMEFLEFKSCVHRDLAARNVLVTHGKVVKICDFGLARDIMSDSNYVVRGNARLPVKWMAPESLFEGIYTIKSDVWSYGILLWEIFSLGVNPYPGIPVDANFYKLIQNGFKMDQPFYATEEIYIIMQSCWAFDSRKRPSFPNLTSFLGCQLADAEEAMYQNVDGRVSECPHTYQNRRPFSREMDLGLLSPQAQVEDS
modifications: left off: small tags and cut ends
B8: IGF1R (protein)
chain: RKRNNSRLGNGVLYASVNPEYFSAADVYVPDEWEVAREKITMSRELGQGSFGMVYEGVAKGVVKDEPETRVAIKTVNEAASMRERIEFLNEASVMKEFNCHHVVRLLGVVSQGQPTLVIMELMTRGDLKSYLRSLRPEMENNPVLAPPSLSKMIQMAGEIADGMAYLNANKFVHRDLAARNCMVAEDFTVKIGDFGMTRDIYETDYYRKGGKGLLPVRWMSPESLKDGVFTTYSDVWSFGVVLWEIATLAEQPYQGLSNEQVLRFVMEGGLLDKPDNCPDMLFELMRMCWQYNPKMRPSFLEIISSIKEEMEPGFREVSFYYSEENKLPEPEELDLEPENMESVPLDPSASSSSLPLPDRHSGHKAENGPGPGVLVLRASFDERQPYAHMNGGRKNERALPLPQSSTC
modifications: left off: small tags and cut ends
B9: INSRR (protein)
chain: YGKKRNRTLYASVNPEYFSASDMYVPDEWEVPREQISIIRELGQGSFGMVYEGLARGLEAGEESTPVALKTVNELASPRECIEFLKEASVMKAFKCHHVVRLLGVVSQGQPTLVIMELMTRGDLKSHLRSLRPEAENNPGLPQPALGEMIQMAGEIADGMAYLAANKFVHRDLAARNCMVSQDFTVKIGDFGMTRDVYETDYYRKGGKGLLPVRWMAPESLKDGIFTTHSDVWSFGVVLWEIVTLAEQPYQGLSNEQVLKFVMDGGVLEELEGCPLQLQELMSRCWQPNPRLRPSFTHILDSIQEELRPSFRLLSFYYSPECRGARGSLPTTDAEPDSSPTPRDCSPQNGGPGH
modifications: left off: a dimerising Fc or GST
B10: FGFR2 (protein)
chain: RMKNTTKKPDFSSQPAVHKLTKRIPLRRQVTVSAESSSSMNSNTPLVRITTRLSSTADTPMLAGVSEYELPEDPKWEFPRDKLTLGKPLGEGCFGQVVMAEAVGIDKDKPKEAVTVAVKMLKDDATEKDLSDLVSEMEMMKMIGKHKNIINLLGACTQDGPLYVIVEYASKGNLREYLRARRPPGMEYSYDINRVPEEQMTFKDLVSCTYQLARGMEYLASQKCIHRDLAARNVLVTENNVMKIADFGLARDINNIDYYKKTTNGRLPVKWMAPEALFDRVYTHQSDVWSFGVLMWEIFTLGGSPYPGIPVEELFKLLKEGHRMDKPANCTNELYMMMRDCWHAVPSQRPTFKQLVEDLDRILTLTTNEEYLDLSQPLEQYSPSYPDTRSSCSSGDDSVFSPDPMPYEPCLPQYPHINGSVKT
modifications: left off: small tags and cut ends

system: kinases of Table 6 on Myelin Basic Protein (MBP); assay: Kinase assay using MBP substrate, ProQ Diamond stain (Table 6); format: biochemical; details: kinase printed on MBP-coated slide; 20 uM ATP, 30° C.; ProQ Diamond Microarray Stain; graded Strong/Weak/Negative
Summary of the method: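 Bovine dephosphorylated MBP coated on aldehyde- or epoxy-glass slides, kinases printed on top; reaction buffer pH 7.5 with 4 mM MgCl2, 20 uM ATP, 5% DMSO, ± inhibitor, at 30° C. Phosphorylation detected by ProQ Diamond stain, 30 min in dark.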

Row | Molecule | MBP Kinase Activity
1 | B1 | Negative
2 | B2 | Strong
3 | B3 | Strong
4 | B4 | Strong
5 | B5 | Strong
6 | B6 | Strong
7 | B7 | Strong
8 | B8 | Strong
9 | B9 | Negative
10 | B10 | Strong
